Test results published in article PMC9023281.

Target: Polθ helicase domain (amino acids 1–894), O75417
Assay: SEC; calibrated size exclusion chromatography of purified Polθ-h
Settings: remark: other sources report otherwise

- stoichiometry N: 4
B1: Polθ helicase domain (amino acids 1–894), O75417 1-894 (domain or fragment)
chain: MNLLRRSGKRRRSESGSDSFSGSGGDSSASPQFLSGSVLSPPPGLGRCLKAAAAGECKPTVPDYERDKLLLANWGLPKAVLEKYHSFGVKKMFEWQAECLLLGQVLEGKNLVYSAPTSAGKTLVAELLILKRVLEMRKKALFILPFVSVAKEKKYYLQSLFQEVGIKVDGYMGSTSPSRHFSSLDIAVCTIERANGLINRLIEENKMDLLGMVVVDELHMLGDSHRGYLLELLLTKICYITRKSASCQADLASSLSNAVQIVGMSATLPNLELVASWLNAELYHTDFRPVPLLESVKVGNSIYDSSMKLVREFEPMLQVKGDEDHVVSLCYETICDNHSVLLFCPSKKWCEKLADIIAREFYNLHHQAEGLVKPSECPPVILEQKELLEVMDQLRRLPSGLDSVLQKTVPWGVAFHHAGLTFEERDIIEGAFRQGLIRVLAATSTLSSGVNLPARRVIIRTPIFGGRPLDILTYKQMVGRAGRKGVDTVGESILICKNSEKSKGIALLQGSLKPVRSCLQRREGEEVTGSMIRAILEIIVGGVASTSQDMHTYAACTFLAASMKEGKQGIQRNQESVQLGAIEACVMWLLENEFIQSTEASDGTEGKVYHPTHLGSATLSSSLSPADTLDIFADLQRAMKGFVLENDLHILYLVTPMFEDWTTIDWYRFFCLWEKLPTSMKRVAELVGVEEGFLARCVKGKVVARTERQHRQMAIHKRFFTSLVLLDLISEVPLREINQKYGCNRGQIQSLQQSAAVYAGMITVFSNRLGWHNMELLLSQFQKRLTFGIQRELCDLVRVSLLNAQRARVLYASGFHTVADLARANIVEVEVILKNAVPFKSARKAVDEEEEAVEERRNMRTIWVTGRKGLTEREAAALIVEEARMILQQDLVEM
